The values below come from patent publication US20230035235A1.

In test [1] the target is BCL7C (human) (UniProt Q8WUZ0). Nature of the test: HA affinity purification of HA-DPF2 from HEK-293T nuclear extract, glycerol gradient fraction 14, mass spectrometry of co-purified proteins.
The target of test [2] is ACTL6A (human) (UniProt O96019). The description is as above.
The target in another test is SMARCD2 (human) (UniProt Q92925). The test is described as above.
In test [3] the target is SS18L1 (human) (UniProt O75177). The description is as above.
For test [4], the target named is BCL7A (human) (UniProt Q4VC05). The test is described as above.
A further test concerns the target SMARCE1 (human) (UniProt Q969G3). The test is described as above.
A further test deals with SS18 (human) (UniProt Q15532). The description is as above.
The target in a further test is SMARCD1 (human) (UniProt Q96GM5). The test is described as above.
The target of test [5] is SMARCB1 (human) (UniProt Q12824). The description is as above.
Test [6] deals with DPF1 (entry E9PDV3) (human). Nature of the test: HA affinity purification of HA-SMARCD1 mSWI/SNF complexes from HEK-293T nuclear extract, glycerol gradient fraction 15, mass spectrometry; co-purification in the complex, not necessarily direct contact.
The target of test [7] is SMARCA4 (entry Q9HBD4) (human). Described as above.
Test [8] concerns the target BCL7C (human) (UniProt Q8WUZ0). Briefly: HA affinity purification from HEK-293T nuclear extract, glycerol gradient fraction 15, mass spectrometry (co-purification in the complex).
Test [9] has as its target ACTL6A (human) (UniProt O96019). The description is as above.
In a further test the target is BRD7 (human) (UniProt Q9NPI1). Described as above.
The target of another test is PBRM1 (human) (UniProt Q86U86). The description is as above.
Test [10] addresses SS18L1 (human) (UniProt O75177). The test is described as above.
A further test has as its target BRD9 (human) (UniProt Q9H8M2). The test is described as above.
A further test has as its target GLTSCR1L (human) (UniProt Q6AI39). Described as above.
The next test addresses DPF3 (human) (UniProt Q92784). The description is as above.
For test [11], the target named is BCL7A (human) (UniProt Q4VC05). The test is described as above.
The next test concerns the target DPF2 (human) (UniProt Q92785). Described as above.
For the next test, the target named is GLTSCR1 (human) (UniProt Q9NZM4). The test is described as above.
In the next test the target is DPF1 (human) (UniProt Q92782). The description is as above.
In a further test the target is PHF10 (human) (UniProt Q8WUB8). Described as above.
The target in test [12] is SMARCB1 (human) (UniProt Q12824). Described as above.
The target in test [13] is DPF2 (Double PHD Fingers 2) (human) (UniProt Q92785). Briefly: colloidal blue stain and fluorometric analysis of DPF2-purified complexes.

Chain of SMARCB1 (human) (Q12824 whole entry): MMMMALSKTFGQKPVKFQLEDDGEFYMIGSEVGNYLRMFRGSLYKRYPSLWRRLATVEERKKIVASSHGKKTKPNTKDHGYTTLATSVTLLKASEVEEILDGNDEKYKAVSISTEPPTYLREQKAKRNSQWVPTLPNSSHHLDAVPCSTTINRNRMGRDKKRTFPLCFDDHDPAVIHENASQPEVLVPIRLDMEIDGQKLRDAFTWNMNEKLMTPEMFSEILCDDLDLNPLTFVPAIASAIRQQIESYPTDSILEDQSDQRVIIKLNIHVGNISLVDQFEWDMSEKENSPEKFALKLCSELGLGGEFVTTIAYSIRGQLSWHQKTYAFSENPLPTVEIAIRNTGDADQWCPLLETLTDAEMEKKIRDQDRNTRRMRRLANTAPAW
Chain of SS18L1 (human) (O75177 whole entry): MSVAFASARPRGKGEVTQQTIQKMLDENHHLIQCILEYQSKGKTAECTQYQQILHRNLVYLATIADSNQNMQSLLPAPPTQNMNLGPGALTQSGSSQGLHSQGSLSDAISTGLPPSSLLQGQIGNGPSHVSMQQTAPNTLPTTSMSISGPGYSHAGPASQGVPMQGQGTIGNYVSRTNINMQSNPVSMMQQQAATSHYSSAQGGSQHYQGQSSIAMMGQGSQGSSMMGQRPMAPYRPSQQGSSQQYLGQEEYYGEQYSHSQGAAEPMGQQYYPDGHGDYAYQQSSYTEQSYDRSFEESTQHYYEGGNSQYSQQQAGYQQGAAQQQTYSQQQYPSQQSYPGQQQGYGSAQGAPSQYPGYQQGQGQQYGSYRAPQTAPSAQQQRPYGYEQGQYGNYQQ
Chain of ACTL6A (human) (O96019 2-429 limits assumed): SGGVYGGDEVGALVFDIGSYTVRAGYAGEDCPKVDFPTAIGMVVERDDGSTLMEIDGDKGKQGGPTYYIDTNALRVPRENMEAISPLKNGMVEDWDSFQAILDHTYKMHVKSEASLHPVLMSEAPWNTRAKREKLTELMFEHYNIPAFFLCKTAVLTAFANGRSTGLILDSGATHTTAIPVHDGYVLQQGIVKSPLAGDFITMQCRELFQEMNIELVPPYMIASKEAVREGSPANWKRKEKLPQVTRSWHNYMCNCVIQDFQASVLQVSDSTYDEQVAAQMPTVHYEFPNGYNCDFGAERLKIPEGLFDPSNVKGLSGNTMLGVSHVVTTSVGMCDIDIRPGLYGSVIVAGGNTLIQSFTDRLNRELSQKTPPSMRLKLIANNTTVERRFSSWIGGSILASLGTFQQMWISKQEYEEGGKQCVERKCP
Chain of BCL7A (human) (Q4VC05 whole entry): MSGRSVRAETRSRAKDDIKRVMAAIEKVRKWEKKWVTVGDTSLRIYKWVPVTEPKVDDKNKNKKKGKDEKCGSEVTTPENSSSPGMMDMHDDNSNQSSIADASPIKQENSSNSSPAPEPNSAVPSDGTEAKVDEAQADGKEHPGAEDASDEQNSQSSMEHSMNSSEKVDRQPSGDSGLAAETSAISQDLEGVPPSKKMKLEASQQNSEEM
Chain of GLTSCR1 (human) (Q9NZM4 whole entry): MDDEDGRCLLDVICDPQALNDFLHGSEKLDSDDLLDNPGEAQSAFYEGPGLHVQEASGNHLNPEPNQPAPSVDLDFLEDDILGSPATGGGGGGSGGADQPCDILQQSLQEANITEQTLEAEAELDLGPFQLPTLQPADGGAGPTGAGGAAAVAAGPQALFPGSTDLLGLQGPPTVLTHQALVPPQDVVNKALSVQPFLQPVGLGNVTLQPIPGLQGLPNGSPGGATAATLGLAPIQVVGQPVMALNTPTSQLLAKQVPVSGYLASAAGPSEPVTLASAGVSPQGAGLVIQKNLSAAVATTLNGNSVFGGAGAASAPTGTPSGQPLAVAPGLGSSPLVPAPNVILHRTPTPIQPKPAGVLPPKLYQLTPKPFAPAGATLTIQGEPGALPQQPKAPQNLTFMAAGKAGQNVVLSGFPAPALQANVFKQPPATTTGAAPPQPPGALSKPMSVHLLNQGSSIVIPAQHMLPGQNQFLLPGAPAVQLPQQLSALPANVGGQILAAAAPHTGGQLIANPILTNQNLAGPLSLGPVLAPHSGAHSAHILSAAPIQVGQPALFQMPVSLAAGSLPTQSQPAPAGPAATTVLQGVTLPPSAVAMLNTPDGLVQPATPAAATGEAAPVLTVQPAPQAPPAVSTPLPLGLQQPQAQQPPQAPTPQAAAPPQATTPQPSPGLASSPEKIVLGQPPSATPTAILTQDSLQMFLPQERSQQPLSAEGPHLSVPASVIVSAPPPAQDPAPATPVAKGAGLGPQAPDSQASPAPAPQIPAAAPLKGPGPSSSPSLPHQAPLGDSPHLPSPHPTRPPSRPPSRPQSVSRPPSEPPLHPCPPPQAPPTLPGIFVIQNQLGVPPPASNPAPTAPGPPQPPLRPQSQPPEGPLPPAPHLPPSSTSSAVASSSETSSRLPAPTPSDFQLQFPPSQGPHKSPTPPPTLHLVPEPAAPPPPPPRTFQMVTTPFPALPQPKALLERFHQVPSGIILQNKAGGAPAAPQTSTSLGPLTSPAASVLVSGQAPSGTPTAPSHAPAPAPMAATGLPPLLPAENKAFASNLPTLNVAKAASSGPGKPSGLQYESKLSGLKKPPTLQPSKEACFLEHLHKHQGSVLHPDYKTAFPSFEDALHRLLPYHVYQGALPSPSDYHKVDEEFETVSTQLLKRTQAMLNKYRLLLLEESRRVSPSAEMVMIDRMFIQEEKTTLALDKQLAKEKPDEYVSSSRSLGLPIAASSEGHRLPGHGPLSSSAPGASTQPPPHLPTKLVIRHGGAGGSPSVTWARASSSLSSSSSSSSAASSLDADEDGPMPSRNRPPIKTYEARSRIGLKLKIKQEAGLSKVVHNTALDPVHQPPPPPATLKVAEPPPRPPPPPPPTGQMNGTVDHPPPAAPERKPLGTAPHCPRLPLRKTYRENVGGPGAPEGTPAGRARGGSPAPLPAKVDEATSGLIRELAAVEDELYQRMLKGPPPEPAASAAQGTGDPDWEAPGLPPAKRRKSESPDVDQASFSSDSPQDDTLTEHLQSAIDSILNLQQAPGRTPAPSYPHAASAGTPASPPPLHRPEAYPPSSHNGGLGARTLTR
Chain of SMARCE1 (human) (Q969G3 whole entry): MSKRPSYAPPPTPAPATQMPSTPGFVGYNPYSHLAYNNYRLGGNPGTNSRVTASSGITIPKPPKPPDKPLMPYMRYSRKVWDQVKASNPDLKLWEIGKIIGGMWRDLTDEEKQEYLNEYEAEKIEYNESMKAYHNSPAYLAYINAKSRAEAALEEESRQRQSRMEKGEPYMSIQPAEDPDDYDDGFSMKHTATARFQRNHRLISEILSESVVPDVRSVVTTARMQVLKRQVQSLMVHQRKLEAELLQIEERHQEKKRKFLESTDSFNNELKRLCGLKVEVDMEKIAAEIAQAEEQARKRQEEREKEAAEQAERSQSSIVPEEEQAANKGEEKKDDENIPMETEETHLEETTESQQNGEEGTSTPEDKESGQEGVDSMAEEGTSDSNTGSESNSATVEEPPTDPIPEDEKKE
Chain of SS18 (human) (Q15532 2-418 limits assumed): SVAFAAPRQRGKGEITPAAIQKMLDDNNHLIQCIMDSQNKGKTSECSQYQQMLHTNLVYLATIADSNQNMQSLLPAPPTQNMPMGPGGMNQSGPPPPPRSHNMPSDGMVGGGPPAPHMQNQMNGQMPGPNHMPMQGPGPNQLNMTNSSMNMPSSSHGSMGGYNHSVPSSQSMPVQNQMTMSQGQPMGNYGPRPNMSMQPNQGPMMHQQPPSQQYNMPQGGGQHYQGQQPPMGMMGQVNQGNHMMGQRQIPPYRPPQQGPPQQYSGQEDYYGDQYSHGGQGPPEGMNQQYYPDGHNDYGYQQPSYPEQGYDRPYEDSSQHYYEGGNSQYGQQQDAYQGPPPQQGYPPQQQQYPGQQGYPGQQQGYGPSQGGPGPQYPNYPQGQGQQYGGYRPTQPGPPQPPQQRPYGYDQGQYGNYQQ
Chain of DPF1 (human) (Q92782 whole entry): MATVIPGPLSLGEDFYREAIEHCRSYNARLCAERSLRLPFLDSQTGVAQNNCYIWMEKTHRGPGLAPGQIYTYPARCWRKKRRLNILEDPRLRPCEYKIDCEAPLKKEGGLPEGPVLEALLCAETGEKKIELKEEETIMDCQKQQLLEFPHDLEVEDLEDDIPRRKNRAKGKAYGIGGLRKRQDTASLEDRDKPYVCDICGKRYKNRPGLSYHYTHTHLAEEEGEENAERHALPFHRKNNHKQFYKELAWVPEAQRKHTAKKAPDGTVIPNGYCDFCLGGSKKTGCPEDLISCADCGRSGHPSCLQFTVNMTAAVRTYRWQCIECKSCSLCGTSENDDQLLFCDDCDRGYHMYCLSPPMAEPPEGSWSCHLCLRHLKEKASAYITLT
Chain of BRD7 (human) (Q9NPI1 whole entry): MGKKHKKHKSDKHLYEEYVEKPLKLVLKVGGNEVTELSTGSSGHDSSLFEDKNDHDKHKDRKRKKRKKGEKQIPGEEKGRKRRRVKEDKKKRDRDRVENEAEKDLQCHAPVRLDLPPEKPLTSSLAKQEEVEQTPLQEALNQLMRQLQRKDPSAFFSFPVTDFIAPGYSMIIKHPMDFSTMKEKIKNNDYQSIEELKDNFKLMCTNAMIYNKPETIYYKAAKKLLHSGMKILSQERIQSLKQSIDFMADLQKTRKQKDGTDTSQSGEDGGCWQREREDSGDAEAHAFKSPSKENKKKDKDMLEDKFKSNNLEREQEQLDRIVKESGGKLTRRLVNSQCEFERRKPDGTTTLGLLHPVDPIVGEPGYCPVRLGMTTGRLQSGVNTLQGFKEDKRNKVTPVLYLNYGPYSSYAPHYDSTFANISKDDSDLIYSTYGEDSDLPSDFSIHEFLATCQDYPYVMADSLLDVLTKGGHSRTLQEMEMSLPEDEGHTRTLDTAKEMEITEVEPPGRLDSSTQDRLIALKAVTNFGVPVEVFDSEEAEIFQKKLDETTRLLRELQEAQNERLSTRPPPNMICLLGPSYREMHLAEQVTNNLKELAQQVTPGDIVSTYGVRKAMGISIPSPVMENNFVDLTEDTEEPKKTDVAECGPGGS

Consider HA-DPF2 (from UniProt Q92785 1-391), for which the total peptides in the test with BCL7C (human) [1] was determined as 13 peptides; with ACTL6A (human) [2], 61 peptides; with SMARCD2 (human), 51 peptides; in the test with SS18L1 (human) [3], 3 peptides; with BCL7A (human) [4] it was 36 peptides; with SMARCE1 (human) it was 118 peptides. For the same substance, the total peptides is 2 peptides with SS18 (human), 83 peptides in the test with SMARCD1 (human) and 62 peptides with SMARCB1 (human) [5]. The unique peptides with BCL7C (human) [1] worked out at 7 peptides; in the test with ACTL6A (human) [2], 23 peptides; with SMARCD2 (human), 32 peptides; in the test with SS18L1 (human) [3], 2 peptides; in the test with SMARCE1 (human) it was 40 peptides; with SS18 (human) it was 2 peptides. In addition, the unique peptides came out at 37 peptides with SMARCD1 (human) and 22 peptides with SMARCB1 (human) [5].

Take HA-SMARCD1 (from UniProt Q96GM5 1-515): the total peptides in [6] is 1; in [7] it was 1; in the test with BCL7C (human) [8] it was 19 peptides; with ACTL6A (human) [9], 58 peptides; in the test with BRD7 (human) it was 29 peptides; with PBRM1 (human), 115 peptides. Also, the total peptides came to 2 peptides with SS18L1 (human) [10]; 8 peptides in the test with BRD9 (human); 1 peptides in the test with GLTSCR1L (human); 12 peptides with DPF3 (human); 33 peptides in the test with BCL7A (human) [11]; 41 peptides with DPF2 (human). Further, the total peptides came out at 11 peptides with GLTSCR1 (human), 7 peptides in the test with DPF1 (human), 14 peptides with PHF10 (human) and 75 peptides in the test with SMARCB1 (human) [12]. In addition, the unique peptides in test [6] came to 1; in test [7], 1; with BCL7C (human) [8], 8 peptides; in the test with BRD7 (human), 19 peptides; in the test with PBRM1 (human), 79 peptides; in the test with SS18L1 (human) [10], 2 peptides. Also, the unique peptides turned out to be 8 peptides with BRD9 (human); 1 peptides with GLTSCR1L (human); 10 peptides with DPF3 (human); 12 peptides in the test with BCL7A (human) [11]; 19 peptides with DPF2 (human); 10 peptides in the test with GLTSCR1 (human). Besides, the unique peptides amounted to 6 peptides with DPF1 (human) and 14 peptides with PHF10 (human).

On to “SMARCC2 (SWI/SNF related, matrix associated, actin dependent regulator of chromatin subfamily c member 2) (from UniProt Q8TAQ2 1-1214)”, for which the stoichiometry relative to DPF2 bait (copies per DPF2) in [13] worked out at 1.
